Data set [1] concerns the target T1, DrRuvC (Deinococcus radiodurans, UniProt Q9RX75 1-179).
T1 sequence: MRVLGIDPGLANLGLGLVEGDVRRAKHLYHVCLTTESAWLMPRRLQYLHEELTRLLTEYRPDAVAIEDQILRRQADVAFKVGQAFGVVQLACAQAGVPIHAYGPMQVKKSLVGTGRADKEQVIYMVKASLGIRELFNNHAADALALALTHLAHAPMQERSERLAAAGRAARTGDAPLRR
Nature of the data set: EMSA; 1 mM EDTA; 0-500 nM protein; 50 mM Tris-HCl pH 7.0, 100 mM NaCl, 1 mM EDTA, 1% glycerol, 50 nM 5'-FAM DNA, on ice 30 min, 5% native PAGE. Conditions: protein: recombinant; tags: N-terminal 6xHis (pET28a NdeI/BamHI); chain copies: 2; label: 5'-FAM on one strand; four-way junction, non-homologous core, immobile, 4 strands. In general terms: Mobility shift assays separate free from complexed probe on a gel.

Data set [2] deals with T1, DrRuvC. As to the kind of experiment: EMSA; no stable shift up to 500 nM protein; 50 mM Tris-HCl pH 7.0, 100 mM NaCl, 1 mM EDTA, 1% glycerol, 50 nM 5'-FAM DNA, on ice 30 min, 5% native PAGE. Particulars: protein: recombinant, tags: N-terminal 6xHis (pET28a NdeI/BamHI), chain copies: 2, label: 5'-FAM on one strand.
Data set [3] deals with the molecule itself. Nature of the data set: SEC; Superdex 75 10/300 GL column, recombinant DrRuvC; 4 °C; buffers in Supplementary Table S1.
Data set [4] addresses T1, DrRuvC. As to the kind of experiment: EMSA; 1 mM EDTA; 0-500 nM protein; no significant difference from HJ-0X; 50 mM Tris-HCl pH 7.0, 100 mM NaCl, 1 mM EDTA, 1% glycerol, 50 nM 5'-FAM DNA, on ice 30 min, 5% native PAGE. Conditions: protein: recombinant; tags: N-terminal 6xHis (pET28a NdeI/BamHI); chain copies: 2; label: 5'-FAM on one strand; four-way junction, 12 bp homologous mobile core, 4 strands.

From article PMC9228767, “Structural and Functional Characterization of the Holliday Junction Resolvase RuvC from Deinococcus radiodurans” (Microorganisms, 2022) come the findings set out here.

As usually defined, the stoichiometry N is a count of units in the complex or per binding partner.

B1: HJ-0X (structured_DNA)
DNA 1: CCACCAGAAACACGCCACAGTTTTTGTTTTGATTGCGAGGCCGTCCTACC
DNA 2: GGTAGGACGGCCTCGCAATCAAAACTTTTTGAGCACGCGAGATGTCAACG
DNA 3: CGTTGACATCTCGCGTGCTCAAAAAAAAAACAGATGCGGAGTGAAGTTCC
DNA 4: GGAACTTCACTCCGCATCTGTTTTTAAAAACTGTGGCGTGTTTCTGGTGG
In the case of B1, the binding result with DrRuvC [1] is listed as “binds”.

B2: Y-junction (structured_DNA)
DNA 1: B1 DNA 1
DNA 2: B1 DNA 2
DNA 3: CGTTGACATCTCGCGTGCTCAAAAAAAAAACTGTGGCGTGTTTCTGGTGG
For the molecule B2, the binding result with DrRuvC [2] (three-way junction, 3 strands) is “no binding”.

B3: bulge (dsDNA)
DNA 1: B1 DNA 1
DNA 2: GGTAGGACGGCCTCGCAATCTTTTGTTTTTCTGTGGCGTGTTTCTGGTGG
In the case of B3, the binding result in the data set with DrRuvC [2] (internal unpaired bubble, blunt ends) is recorded as “no binding”.

B4: duplex (dsDNA)
DNA 1: B1 DNA 1
DNA 2: GGTAGGACGGCCTCGCAATCAAAACAAAAACTGTGGCGTGTTTCTGGTGG
As for B4, the binding result with DrRuvC [2] (blunt) is on record as “no binding”.

B5: flap (structured_DNA)
DNA 1: B1 DNA 1
DNA 2: B1 DNA 2
DNA 3: CGTTGACATCTCGCGTGCTCAAAAA
Regarding B5, the binding result with DrRuvC [2] (flap, 3 strands: S1 3' half with S4 5' half, S4 3' half with S5) is given as “no binding”.

B6: RuvC from Deinococcus radiodurans (DrRuvC), full-length (enzyme, UniProt Q9RX75 1-179, looked up)
chain: T1 sequence
notes: Holliday junction resolvase RuvC (DR_0440) of Deinococcus radiodurans, full length; has a C-terminal tail (residues 163-179); residues 1-154 of each monomer are seen in the crystal structure; Cloned into pET28a between NdeI and BamHI; the His tag is said to be on the protein used for crystallisation; also called DR_0440; source: E. coli BL21 (DE3), purified (nickel, desalting, Heparin ion …)
In the case of B6, in data set [3], the “stoichiometry N” value turned out to be 2.

B7: HJ-12X (structured_DNA)
DNA 1: GACGCTGCCGAATTCTGGCTTGCTAGGACATCTTTGCCCACGTTGACCCA
DNA 2: TGGGTCAACGTGGGCAAAGATGTCCTAGCAATGTAATCGTCTATGACGTT
DNA 3: AACGTCATAGACGATTACATTGCTAGGACATGCTGTCTAGAGACTATCGA
DNA 4: TCGATAGTCTCTAGACAGCATGTCCTAGCAAGCCAGAATTCGGCAGCGTC
Take B7: the binding result with DrRuvC [4] was “binds”.
